Measured values reported in publication doi:10.1101/2020.02.12.945170, “Regulated unbinding of ZAP70 at the T cell receptor by kinetic avidity” (bioRxiv, 2020).
Square brackets hold non-standard residues; d marks the D form. Ends that are not written are not given here. * marks the point of attachment. Biotin = O=C1N[C@H]2[C@H](CS[C@H]2CCCCC(=O)*)N1; pY = N[C@@H](Cc1ccc(OP(=O)(O)O)cc1)C(=O)O

Experiments:
[1] = molecular target: T1, ZAP70 tSH2-GFP (tandem SH2 domains of human ZAP70, amino acids 1-264, with C-terminal GFP) (human, UniProt P43403 1-264); assay: SPR; Biacore S200, 37°C, HBS-EP (10 mM HEPES pH 7.4, 150 mM NaCl, 1 mM EDTA, 0.005% Tween P20), 50 µl/min; biotinylated peptides or Avi-CD3ζ ITAM3 immobilised on streptavidin-coupled CM5 chips, ZAP70 tSH2-GFP injected; 1:1 binding model, 'effective' constants for the biphosphorylated peptide; on Avi-CD3ζ ITAM3 also ABA injections of 500 nM ZAP70 with CD45 cytoplasmic domain; conditions: both partners purified
T1 construct: tandem SH2 domains of human ZAP70 (Zeta-chain-associated protein kinase 70), amino acids 1-264; Cloned into pET21 between NdeI and NotI; source: E. coli BL21 (DE3), purified (Ni2+-NTA, Sephacryl S-200 size exclusion); not shown: GFP, C-terminal, kept
T1 sequence (looked up): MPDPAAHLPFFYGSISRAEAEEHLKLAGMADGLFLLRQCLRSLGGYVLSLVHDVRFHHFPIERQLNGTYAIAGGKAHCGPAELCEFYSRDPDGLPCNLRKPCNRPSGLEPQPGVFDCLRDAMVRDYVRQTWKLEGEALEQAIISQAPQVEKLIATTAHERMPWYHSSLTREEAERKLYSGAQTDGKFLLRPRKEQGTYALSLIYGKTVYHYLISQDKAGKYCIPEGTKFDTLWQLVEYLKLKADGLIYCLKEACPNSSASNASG

[2] = molecular target: T1, ZAP70 tSH2-GFP (tandem SH2 domains of …); assay: single particle tracking by TIRF microscopy; biotinylated ITAM3 peptides immobilised on coverslips coated with poly-L-lysine-PEG-biotin and streptavidin; ZAP70 tSH2-GFP or tSH2-Halo-Alexa647 at 200 nM in PBS/BSA with 1 mM DTT; 37°C; distributions of binding times fitted with exponentials (slow phase of a two-phase decay for the biphosphorylated peptide); conditions: both partners purified

Row | Binder | Kd [1] [nM] | koff [1] [s⁻¹] | kon [1] [M⁻¹ s⁻¹] | koff [2] [s⁻¹]
1 | Biotin-GKGHDLL[pY]QGLSTATKDT[pY]DALHMQ (peptide derived from the membrane-distal ITAM of CD3ζ (ITAM3); also called ITAM NC; biphosphorylated ITAM3; source: synthetic peptide; bought: PeptideSynthetics (>95% pure)) [ITAM3 NC (biphosphorylated CD3ζ ITAM3 peptide)] | 96 | 0.227 | 1.89e+06 | 0.368 ± 0.011
2 | Biotin-GKGHDLL[pY]QGLSTATKDTYDALHMQ (peptide derived from the membrane-distal ITAM of CD3ζ (ITAM3); also called ITAM N; monophosphorylated ITAM3 N; source: synthetic peptide; bought: PeptideSynthetics (>95% pure)) [ITAM3 N (N-monophosphorylated CD3ζ ITAM3 peptide)] |  |  |  | 11.4 ± 0.011
3 | Biotin-GKGHDLLYQGLSTATKDT[pY]DALHMQ (peptide derived from the membrane-distal ITAM of CD3ζ (ITAM3); also called ITAM C; monophosphorylated ITAM3 C; source: synthetic peptide; bought: PeptideSynthetics (>95% pure)) [ITAM3 C (C-monophosphorylated CD3ζ ITAM3 peptide)] |  |  |  | 4.75 ± 0.14
